Assay [1] has as its target T1, Terbium (Tb) labeled-SNAP tagged ROBO2 expressed on HEK293 cells (Homo sapiens (Human), UniProt Q9HCK4 22-1378, terbium label on the SNAP tag).
T1 construct: also called Tb-labeled ROBO2 cells; ROBO2 expressing cells; not shown: SNAP tag
T1 sequence: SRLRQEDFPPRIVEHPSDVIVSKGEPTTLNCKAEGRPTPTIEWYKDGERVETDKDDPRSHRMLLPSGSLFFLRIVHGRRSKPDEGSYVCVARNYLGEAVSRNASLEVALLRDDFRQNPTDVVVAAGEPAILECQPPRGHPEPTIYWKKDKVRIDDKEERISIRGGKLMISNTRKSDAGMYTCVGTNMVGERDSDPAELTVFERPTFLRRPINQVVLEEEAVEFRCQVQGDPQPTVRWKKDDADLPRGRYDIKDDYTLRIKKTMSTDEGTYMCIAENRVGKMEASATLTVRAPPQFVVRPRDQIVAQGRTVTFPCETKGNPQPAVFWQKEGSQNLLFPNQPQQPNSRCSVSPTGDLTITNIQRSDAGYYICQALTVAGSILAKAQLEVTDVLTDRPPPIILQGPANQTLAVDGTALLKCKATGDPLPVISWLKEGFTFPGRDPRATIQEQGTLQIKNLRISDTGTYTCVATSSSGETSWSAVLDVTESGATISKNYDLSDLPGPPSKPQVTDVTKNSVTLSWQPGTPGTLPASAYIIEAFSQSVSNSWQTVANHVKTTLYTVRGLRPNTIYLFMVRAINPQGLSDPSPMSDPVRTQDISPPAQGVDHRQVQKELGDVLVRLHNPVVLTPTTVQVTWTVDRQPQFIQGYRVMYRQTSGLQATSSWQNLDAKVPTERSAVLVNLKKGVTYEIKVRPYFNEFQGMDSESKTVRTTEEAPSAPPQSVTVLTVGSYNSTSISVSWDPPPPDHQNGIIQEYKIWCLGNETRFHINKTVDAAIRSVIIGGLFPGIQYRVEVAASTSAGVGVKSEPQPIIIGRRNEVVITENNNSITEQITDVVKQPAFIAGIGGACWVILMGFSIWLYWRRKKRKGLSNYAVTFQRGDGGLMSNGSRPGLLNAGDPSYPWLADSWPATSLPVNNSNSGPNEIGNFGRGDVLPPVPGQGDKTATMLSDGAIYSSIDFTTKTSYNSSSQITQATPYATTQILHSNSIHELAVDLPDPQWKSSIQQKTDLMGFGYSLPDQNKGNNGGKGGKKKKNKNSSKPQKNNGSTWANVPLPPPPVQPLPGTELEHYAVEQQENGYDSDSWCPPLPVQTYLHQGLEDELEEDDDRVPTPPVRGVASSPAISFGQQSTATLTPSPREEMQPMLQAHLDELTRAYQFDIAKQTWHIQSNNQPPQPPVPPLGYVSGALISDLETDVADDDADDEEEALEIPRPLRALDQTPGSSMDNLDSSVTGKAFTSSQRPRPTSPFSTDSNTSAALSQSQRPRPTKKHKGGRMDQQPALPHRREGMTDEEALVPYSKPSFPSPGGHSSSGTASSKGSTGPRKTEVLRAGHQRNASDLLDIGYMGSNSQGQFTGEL
The assay can be described thus: HTRF, 5 nM d2-SLIT2-N on Tb-SNAP-ROBO2 HEK293 cells, 1 nM antibody. The essentials:
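Tb-SNAP-ROBO2 HEK293 cells incubated 1 hour with 5 nM d2-SLIT2-N, with 1 nM anti-ROBO2 antibody or none (maximal signal); cells alone gave minimum. HTRF read at 665/620 nm; IC50 series used 11-point, 5-fold dilutions from 1500 nM.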

The target of assay [2] is T1, Terbium (Tb) labeled-SNAP tagged ROBO2 …. The experiment in a line: HTRF competition, competitor d2-SLIT2-N, ROBO2 HEK293 cells. The essentials: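 HEK293 cells expressing Tb-labeled SNAP-ROBO2 were incubated 1 hour with 5 nM d2-SLIT2-N plus antibody, read as the 665/620 nm HTRF ratio. Controls were no antibody (maximal) and cells alone (minimal). Screening used 1 nM antibody; IC₅₀ came from 11-point, 5-fold dilutions starting at 1500 nM.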
For orientation: Time-resolved FRET reads energy transfer from a long-lived donor to a nearby acceptor.

B1: 93H2 (antibody, human IgG1, kappa, V domains shown)
VH: EVQLVQSGAEVKKPGASVKVSCKASGYTFTGYYMHWVRQAPGQGLEWMGWINPNSGATNFPQKFQGRVTMTRDTSITTAYMDLSRLRSDDTAVYYCARESGDDAFDIWGQGTMVTVSS
VL: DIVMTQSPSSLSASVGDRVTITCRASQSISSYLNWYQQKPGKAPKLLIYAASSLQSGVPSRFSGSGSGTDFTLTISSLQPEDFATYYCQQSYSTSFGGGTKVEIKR
notes: also called parental 93H2; 93H2 mAb
One may read the IC50 as the concentration that gives 50% inhibition. Regarding B1, the “HTRF Ratio” value in assay [1] is 13800. Further, the IC50 in assay [2] came to 4.22 nM.

B2: CTIR2-14 (antibody, human IgG1, kappa, V domains shown)
VH: EVQLVQSGAEVKKPGASVKVSCKASGYTFRGYAMHWVRQAPGQGLEWMGWIDPRTGLTKFPQKFQGRVTMTRDTSITTAYMDLSRLRSDDTAVYYCARESGDDAFDIWGQGTMVTVSS
VL: DIVMTQSPSSLSASVGDRVTITCRASQKISSYLNWYQQKPGKAPKLLIYAASSLQYGVPSRFSGSGSGTDFTLTISSLQPEDFATYYCQQSLELGFGGGTKVEIKR
notes: CDR-shuffled IgG
Turning to B2, the “HTRF Ratio” value in assay [1] came out at 3710. In assay [2], this molecule showed an IC50 of 0.037 nM.

B3: CTIR2-16 (antibody, human IgG1, kappa, V domains shown)
VH: EVQLVQSGAEVKKPGASVKVSCKASGYTFRGYAMHWVRQAPGQGLEWMGWIDPRTGLTKFPQKFQGRVTMTRDTSITTAYMDLSRLRSDDTAVYYCARESGDDAFDIWGQGTMVTVSS
VL: DIVMTQSPSSLSASVGDRVTITCRASQKISSYLNWYQQKPGKAPKLLIYAASSLQYGVPSRFSGSGSGTDFTLTISSLQPEDFATYYCQQSVGLFFGGGTKVEIKR
notes: CDR-shuffled IgG
As to B3, the “HTRF Ratio” value in assay [1] amounted to 3730. The molecule also came in with an IC50 in assay [2] of 0.056 nM.

B4: Abcs55 (antibody, human IgG1, kappa, V domains shown)
VH: EVQLVQSGAEVKKPGASVKVSCKASGYTFTGYYMHWVRQAPGQGLEWMGWINPKDGDTEFPQKFQGRVTMTRDTSITTAYMDLSRLRSDDTAVYYCARESGDDAFDIWGQGTMVTVSS
VL: DIVMTQSPSSLSASVGDRVTITCRASQSISSYLNWYQQKPGKAPKLLIYAASSLQYGVPSRFSGSGSGTDFTLTISSLQPEDFATYYCQQSYSTSFGGGTKVEIKR
notes: chain-shuffled IgG
With B4, the “HTRF Ratio” value in assay [1] is 3050. This molecule also returned an IC50 in assay [2] of 0.057 nM.

B5: Abcs40 (antibody, human IgG1, kappa, V domains shown)
VH: EVQLVQSGAEVKKPGASVKVSCKASGYTFTGYYMHWVRQAPGQGLEWMGWINPKDGDTEFPQKFQGRVTMTRDTSITTAYMDLSRLRSDDTAVYYCARESGDDAFDIWGQGTMVTVSS
VL: DIVMTQSPSSLSASVGDRVTITCRASQSISSYLNWYQQKPGKAPKLLIYAASSLQSGVPSRFSGSGSGTDFTLTISSLQPEDFATYYCQQSVGLFFGGGTKVEIKR
notes: chain-shuffled IgG
In the case of B5, the “HTRF Ratio” value in assay [1] was found to be 3390. The molecule also displayed an IC50 in assay [2] of 0.048 nM.

B6: Abcs20 (antibody, human IgG1, kappa, V domains shown)
VH: EVQLVQSGAEVKKPGASVKVSCKASGYTFTGYYMHWVRQAPGQGLEWMGWINPKNGDTEFPQKFQGRVTMTRDTSITTAYMDLSRLRSDDTAVYYCARESGDDAFDIWGQGTMVTVSS
VL: DIVMTQSPSSLSASVGDRVTITCRASQSISSYLNWYQQKPGKAPKLLIYAASSLQSGVPSRFSGSGSGTDFTLTISSLQPEDFATYYCQQSVGLSFGGGTKVEIKR
notes: chain-shuffled IgG
With B6, the “HTRF Ratio” value in assay [1] turned out to be 3970. Besides, the IC50 in assay [2] is 0.04 nM.

B7: CTIR2-15 (antibody, human IgG1, kappa, V domains shown)
VH: EVQLVQSGAEVKKPGASVKVSCKASGYTFRGYAMHWVRQAPGQGLEWMGWIDPRTGLTKFPQKFQGRVTMTRDTSITTAYMDLSRLRSDDTAVYYCARESGDDAFDIWGQGTMVTVSS
VL: DIVMTQSPSSLSASVGDRVTITCRASQKISSYLNWYQQKPGKAPKLLIYAASSLQYGVPSRFSGSGSGTDFTLTISSLQPEDFATYYCQQSVGLSFGGGTKVEIKR
notes: CDR-shuffled IgG
For the molecule B7, in assay [1], the “HTRF Ratio” value was 3750. This molecule also yielded an IC50 in assay [2] of 0.05 nM.

B8: Abcs35 (antibody, human IgG1, kappa)
heavy: EVQLVQSGAEVKKPGASVKVSCKASGYTFTGYYMHWVRQAPGQGLEWMGWINPKNGDTEFPQKFQGRVTMTRDTSITTAYMDLSRLRSDDTAVYYCARESGDDAFDIWGQGTMVTVSSASTKGPSVFPLAPSSKSTSGGTAALGCLVKDYFPEPVTVSWNSGALTSGVHTFPAVLQSSGLYSLSSVVTVPSSSLGTQTYICNVNHKPSNTKVDKKVEPKSCDKTHTCPPCPAPEAAGAPSVFLFPPKPKDTLMISRTPEVTCVVVDVSHEDPEVKFNWYVDGVEVHNAKTKPREEQYNSTYRVVSVLTVLHQDWLNGKEYKCKVSNKALPAPIEKTISKAKGQPREPQVYTLPPSREEMTKNQVSLTCLVKGFYPSDIAVEWESNGQPENNYKTTPPVLDSDGSFFLYSKLTVDKSRWQQGNVFSCSVMHEALHNHYTQKSLSLSPGK
light: DIVMTQSPSSLSASVGDRVTITCRASQSISSYLNWYQQKPGKAPKLLIYAASSLQSGVPSRFSGSGSGTDFTLTISSLQPEDFATYYCQQSVGLFFGGGTKVEIKRTVAAPSVFIFPPSDEQLKSGTASVVCLLNNFYPREAKVQWKVDNALQSGNSQESVTEQDSKDSTYSLSSTLTLSKADYEKHKVYACEVTHQGLSSPVTKSFNRGEC
notes: fully human IgG1; VH of Ab96 with VL of Ab123
Turning to B8, the “HTRF Ratio” value in assay [1] turned out to be 3940. This molecule had an IC50 in assay [2] of 0.041 nM.

B9: Abcs25 (antibody, human IgG1, kappa, V domains shown)
VH: EVQLVQSGAEVKKPGASVKVSCKASGYTFTGYYMHWVRQAPGQGLEWMGWINPKDGDTEFPQKFQGRVTMTRDTSITTAYMDLSRLRSDDTAVYYCARESGDDAFDIWGQGTMVTVSS
VL: DIVMTQSPSSLSASVGDRVTITCRASQSISSYLNWYQQKPGKAPKLLIYAASSLQSGVPSRFSGSGSGTDFTLTISSLQPEDFATYYCQQSVGLSFGGGTKVEIKR
notes: chain-shuffled IgG
On to B9, for which the “HTRF Ratio” value in assay [1] came to 3880. This molecule also displayed an IC50 in assay [2] of 0.042 nM.
